From patent publication US9482669B2, “Crystal structure of the NanR and ManNAc-6P complex, and uses thereof” (priority 2013, dated 2016)

Each molecule was assayed on nanTp-nanE intergenic region (assay: EMSA of NanR with nanTp-nanE intergenic region). Conditions: wild-type or mutant NanR.
Type: binding, Vibrio vulnificus
Procedure: Purified His-NanR protein was used to raise a primary polyclonal antibody by immunizing European rabbits (Oryctolagus curiculus). First, after one primary injection containing 500 μg of protein, three boosters containing 200 μg of protein was performed at 2-week intervals. Western blotting, EMSA and DNaseI footprinting assays were performed according to typical procedures known in the art.
NanR represses both nan T(PSL)AR and nanEK nagA operons by binding to an operator within the nanTp-nanE intergenic region. To examine the role of R57 and R60 residues in DNA binding, EMSA (electrophoretic gel mobility shift assays), in which the nanTp-nanE intergenic region was incubated with wild-type or mutant NanR in the absence or presence of ManNAc-6P, were performed.
The importance of K188 and K199 residues on all to binding of NanR to DNA was assessed by EMSA. […] Furthermore, the mutants were much more susceptible to ManNAc-6P than wild-type NanR (FIG. 10). […] The transcriptional control region of nan operon interacts with the dimer via the positively charged residues in this space (FIGS. 7b and 7c).

Row | Molecule | DNA binding in EMSA
1 | K188L (protein) MGSPKNLLVRLRSNMEPFSKKLRVVADYILENAHDVQFQTITDLARNTQTSEATVVRLCRDMGYKGYSDFRMALAVDLSQTESRQQNHIEGDICDVSAQSAVDSLQDTAKLIDRKSLARIVERVHQAEFIGCIGVGASSIVGRYLAYRLIRIGKKAIMFEDTHLAAMSASRSSQGDLWFAVSSSGSTLEVIHAAGLAYKRDIPVVSLTNINHSPLSSLSTEMLVAARPEGPLTGGAFASKVGALLLVDVLVNSLLESYPEYKDSVQETAEVVIPLMAN | not as conspicuous as that of wild-type NanR
2 | K188A (protein) MGSPKNLLVRLRSNMEPFSKKLRVVADYILENAHDVQFQTITDLARNTQTSEATVVRLCRDMGYKGYSDFRMALAVDLSQTESRQQNHIEGDICDVSAQSAVDSLQDTAKLIDRKSLARIVERVHQAEFIGCIGVGASSIVGRYLAYRLIRIGKKAIMFEDTHLAAMSASRSSQGDLWFAVSSSGSTAEVIHAAGLAYKRDIPVVSLTNINHSPLSSLSTEMLVAARPEGPLTGGAFASKVGALLLVDVLVNSLLESYPEYKDSVQETAEVVIPLMAN | not as conspicuous as that of wild-type NanR

The molecules below were run on PnanTp (assay: E. coli dual plasmid system (luciferase reporter fused to PnanTp)). Conditions: BSE1201 host, arabinose, presence or absence of Neu5Ac.
Type: cell-based
Procedure: E. coli strains were co-transformed with a luciferase reporter plasmid (pBS0915) and one of the pNB-series of plasmids that express NanR. Cells were cultured overnight and then diluted into the appropriate fresh media (supplemented M9 in FIG. 3; LB in FIG. 4) containing arabinose (0.002%), and incubated at 37° C. until cells grew to early exponential phase. Relative luminescence unit (RLU) was calculated by dividing the luminescence by the A600, as described previously. For screening ligand-sensing residues, the BSE1201 strain (ΔaraBAD ΔnanE) was used as the host cell instead of DH5α to ensure that the arabinose was not used as a carbon source and that ManNAc-6P generated from Neu5Ac was accumulated in the cell.
To assess the importance of the interaction between ManNAc-6P and NanR to regulation of the nan genes, the residues involved in ligand-binding were mutated and the impact on NanR function was investigated using an E. coli dual plasmid system. Cells were cotransformed with plasmids containing a luciferase reporter gene fused to the NanR-binding nanT(PSL)AR promoter (PnanTp), and wild-type or mutant NanR, and then incubated in the presence of arabinose and the presence or absence of Neu5Ac.
The simplest helix-turn-helix (HTH)-containing DBD includes three core helices; the HTH domains can form tetra-helical bundle, winged helix, and ribbon-helix-helix type configurations. The DBD of NanR is composed of a six-helix bundle, which is not the archetypal conformation of HTH-containing domains; therefore, the recognition helix required for DNA-binding could not been determined. […] The importance of these residues to DNA-binding was examined using an E. coli dual plasmid system described in Example 2. The repressive effect of wild-type NanR on activity of PnanTp was abolished by the R57A, R57L, R60A, and R60L point mutations (FIG. 4c).

Row | Molecule | luciferase activity (PnanTp) after addition of Neu5Ac
3 | S138A: modified NanR protein, Ser138 substituted with alanine (protein) MGSPKNLLVRLRSNMEPFSKKLRVVADYILENAHDVQFQTITDLARNTQTSEATVVRLCRDMGYKGYSDFRMALAVDLSQTESRQQNHIEGDICDVSAQSAVDSLQDTAKLIDRKSLARIVERVHQAEFIGCIGVGAASIVGRYLAYRLIRIGKKAIMFEDTHLAAMSASRSSQGDLWFAVSSSGSTKEVIHAAGLAYKRDIPVVSLTNINHSPLSSLSTEMLVAARPEGPLTGGAFASKVGALLLVDVLVNSLLESYPEYKDSVQETAEVVIPLMAN | unable to activate PnanTp
4 | E229L: modified NanR protein, Glu229 substituted with leucine (protein) MGSPKNLLVRLRSNMEPFSKKLRVVADYILENAHDVQFQTITDLARNTQTSEATVVRLCRDMGYKGYSDFRMALAVDLSQTESRQQNHIEGDICDVSAQSAVDSLQDTAKLIDRKSLARIVERVHQAEFIGCIGVGASSIVGRYLAYRLIRIGKKAIMFEDTHLAAMSASRSSQGDLWFAVSSSGSTKEVIHAAGLAYKRDIPVVSLTNINHSPLSSLSTEMLVAARPLGPLTGGAFASKVGALLLVDVLVNSLLESYPEYKDSVQETAEVVIPLMAN | unable to activate PnanTp
5 | S182A: modified NanR protein, Ser182 substituted with alanine (protein) MGSPKNLLVRLRSNMEPFSKKLRVVADYILENAHDVQFQTITDLARNTQTSEATVVRLCRDMGYKGYSDFRMALAVDLSQTESRQQNHIEGDICDVSAQSAVDSLQDTAKLIDRKSLARIVERVHQAEFIGCIGVGASSIVGRYLAYRLIRIGKKAIMFEDTHLAAMSASRSSQGDLWFAVASSGSTKEVIHAAGLAYKRDIPVVSLTNINHSPLSSLSTEMLVAARPEGPLTGGAFASKVGALLLVDVLVNSLLESYPEYKDSVQETAEVVIPLMAN | unable to activate PnanTp
6 | H163A: modified NanR protein, His163 substituted with alanine (protein) MGSPKNLLVRLRSNMEPFSKKLRVVADYILENAHDVQFQTITDLARNTQTSEATVVRLCRDMGYKGYSDFRMALAVDLSQTESRQQNHIEGDICDVSAQSAVDSLQDTAKLIDRKSLARIVERVHQAEFIGCIGVGASSIVGRYLAYRLIRIGKKAIMFEDTALAAMSASRSSQGDLWFAVSSSGSTKEVIHAAGLAYKRDIPVVSLTNINHSPLSSLSTEMLVAARPEGPLTGGAFASKVGALLLVDVLVNSLLESYPEYKDSVQETAEVVIPLMAN | unable to activate PnanTp
7 | H163L: modified NanR protein, His163 substituted with leucine (protein) MGSPKNLLVRLRSNMEPFSKKLRVVADYILENAHDVQFQTITDLARNTQTSEATVVRLCRDMGYKGYSDFRMALAVDLSQTESRQQNHIEGDICDVSAQSAVDSLQDTAKLIDRKSLARIVERVHQAEFIGCIGVGASSIVGRYLAYRLIRIGKKAIMFEDTLLAAMSASRSSQGDLWFAVSSSGSTKEVIHAAGLAYKRDIPVVSLTNINHSPLSSLSTEMLVAARPEGPLTGGAFASKVGALLLVDVLVNSLLESYPEYKDSVQETAEVVIPLMAN | unable to activate PnanTp
8 | K240A: modified NanR protein, Lys240 substituted with alanine (protein) MGSPKNLLVRLRSNMEPFSKKLRVVADYILENAHDVQFQTITDLARNTQTSEATVVRLCRDMGYKGYSDFRMALAVDLSQTESRQQNHIEGDICDVSAQSAVDSLQDTAKLIDRKSLARIVERVHQAEFIGCIGVGASSIVGRYLAYRLIRIGKKAIMFEDTHLAAMSASRSSQGDLWFAVSSSGSTKEVIHAAGLAYKRDIPVVSLTNINHSPLSSLSTEMLVAARPEGPLTGGAFASAVGALLLVDVLVNSLLESYPEYKDSVQETAEVVIPLMAN | unable to activate PnanTp
9 | K240M: modified NanR protein, Lys240 substituted with methionine (protein) MGSPKNLLVRLRSNMEPFSKKLRVVADYILENAHDVQFQTITDLARNTQTSEATVVRLCRDMGYKGYSDFRMALAVDLSQTESRQQNHIEGDICDVSAQSAVDSLQDTAKLIDRKSLARIVERVHQAEFIGCIGVGASSIVGRYLAYRLIRIGKKAIMFEDTHLAAMSASRSSQGDLWFAVSSSGSTKEVIHAAGLAYKRDIPVVSLTNINHSPLSSLSTEMLVAARPEGPLTGGAFASMVGALLLVDVLVNSLLESYPEYKDSVQETAEVVIPLMAN | unable to activate PnanTp
10 | S184A: modified NanR protein, Ser184 substituted with alanine (protein) MGSPKNLLVRLRSNMEPFSKKLRVVADYILENAHDVQFQTITDLARNTQTSEATVVRLCRDMGYKGYSDFRMALAVDLSQTESRQQNHIEGDICDVSAQSAVDSLQDTAKLIDRKSLARIVERVHQAEFIGCIGVGASSIVGRYLAYRLIRIGKKAIMFEDTHLAAMSASRSSQGDLWFAVSSAGSTKEVIHAAGLAYKRDIPVVSLTNINHSPLSSLSTEMLVAARPEGPLTGGAFASKVGALLLVDVLVNSLLESYPEYKDSVQETAEVVIPLMAN | as active as wild-type NanR

Same assay, conditions: point mutations in DBD

Row | Molecule | repressive effect of NanR on activity of PnanTp
11 | R60L: modified NanR protein, Arg60 substituted with leucine (protein) MGSPKNLLVRLRSNMEPFSKKLRVVADYILENAHDVQFQTITDLARNTQTSEATVVRLCLDMGYKGYSDFRMALAVDLSQTESRQQNHIEGDICDVSAQSAVDSLQDTAKLIDRKSLARIVERVHQAEFIGCIGVGASSIVGRYLAYRLIRIGKKAIMFEDTHLAAMSASRSSQGDLWFAVSSSGSTKEVIHAAGLAYKRDIPVVSLTNINHSPLSSLSTEMLVAARPEGPLTGGAFASKVGALLLVDVLVNSLLESYPEYKDSVQETAEVVIPLMAN | abolished
12 | R57L: modified NanR protein, Arg57 substituted with leucine (protein) MGSPKNLLVRLRSNMEPFSKKLRVVADYILENAHDVQFQTITDLARNTQTSEATVVLLCRDMGYKGYSDFRMALAVDLSQTESRQQNHIEGDICDVSAQSAVDSLQDTAKLIDRKSLARIVERVHQAEFIGCIGVGASSIVGRYLAYRLIRIGKKAIMFEDTHLAAMSASRSSQGDLWFAVSSSGSTKEVIHAAGLAYKRDIPVVSLTNINHSPLSSLSTEMLVAARPEGPLTGGAFASKVGALLLVDVLVNSLLESYPEYKDSVQETAEVVIPLMAN | abolished
